Experimental data: paper PMC3769929

Molecular target: hAgo1 (Homo sapiens, UniProt Q9UL18 1-857)
Assay: X-ray crystallography

UGAGGUAGUAGGUUGUAUAGUU (ssRNA, 5' phosphate) [let-7 22mer guide]: binds.
